Where only a bound is given, the exact number is not on record here.

In one test the target is FITC-labeled StmA leader peptide (Streptomonospora alba). The test can be described thus: fluorescence polarisation.
As to StmE D68A (natural protein), the Kd was 38 nM. That is a double-digit nanomolar value.

For StmE D69A (natural protein), the Kd was found to be 2600 nM.

On to StmE D75A (natural protein), for which the Kd was 35 nM. Compared with the last substance, the Kd is about 74-fold lower.

As to StmE N22A (natural protein), the Kd came out at 410 nM.

StmE Q76A (natural protein) came in with a Kd of 75 nM.

StmE V12A (natural protein) had a Kd of 160 nM. Compared with the last substance, the Kd is about 2.1-fold higher.

With StmE Y28A (natural protein), the Kd turned out to be 28 nM.

StmE wild-type (natural protein) showed a Kd of 35 nM.

The target in another test is FITC-labeled HcaA leader peptide (Bacillus sp. Al Hakam). The test can be described thus: fluorescence polarisation.
For HcaF D38A (natural protein), the Kd was found to be 77 nM.

In the case of HcaF E76A (natural protein), the Kd was 250 nM.

With HcaF E79A (natural protein), the Kd came out at 75 nM.

HcaF I80A (natural protein) registered a Kd of 500 nM.

Take HcaF N72A (natural protein): the Kd stood at 79 nM.

Regarding HcaF R73A (natural protein), the Kd is > 10000 nM.

The next test concerns the target FITC-labeled CurA leader (Corynebacterium urealyticum DSM 7109). The test can be described thus: fluorescence polarisation. (In general: In fluorescence polarisation assays a small probe gives low polarisation when free and higher when bound to something large.)
In turn, CurC D18A (natural protein) had a Kd of 3300 nM.

For the substance CurC E25A (natural protein), the Kd is 4300 nM.

CurC E36A (natural protein) displayed a Kd of 3100 nM.

Regarding CurC I75A (natural protein), the Kd is 66000 nM.

As to CurC Q21A (natural protein), the dissociation constant Kd is 8000 nM.

The substance CurC R68A (natural protein) registered a Kd of 79000 nM.

For CurC Y31A (natural protein), the Kd was > 150000 nM.

The next test has as its target FITC-labeled BalhA1 leader peptide (Bacillus sp. Al Hakam). Description: fluorescence polarisation.
BalhC D23A (natural protein): the Kd is 50000 nM.

On to BalhC D32A (natural protein), for which the Kd worked out at 21000 nM. Against the preceding substance, the Kd is about 2.4-fold lower.

BalhC E66A (natural protein) came in with a Kd of 60000 nM.

Take BalhC H38A (natural protein): the Kd worked out at 21000 nM.

BalhC K20A (natural protein) gave a Kd of 52000 nM.

The substance BalhC wild-type (natural protein) displayed a Kd of 10000 nM. This Kd lies about 5.2-fold lower than the previous one.

By Kd is commonly meant a measure of binding affinity in units of concentration. Read a low Kd as higher affinity.

For the origin of these results see publication PMC4509860.
